Experimental data reported in publication PMC5078831.

Biological target: Coxsackie B–Adenovirus Receptor (CAR), human, of 293 cells (human (endogenous in 293)) (UniProt P78310)
Assay: ELISA; virus attachment assay: cells on 96-well plates, biotinylated AdV5 (MOI=100 virus particles per cell) for 90 min on ice (4 °C) or at 37 °C, washed, fixed with 3 % paraformaldehyde, streptavidin-HRP; anti-CAR antibodies blocked 95–98 % of the signal (data not shown)

Sequence of UniProt P78310 (P78310 20-365): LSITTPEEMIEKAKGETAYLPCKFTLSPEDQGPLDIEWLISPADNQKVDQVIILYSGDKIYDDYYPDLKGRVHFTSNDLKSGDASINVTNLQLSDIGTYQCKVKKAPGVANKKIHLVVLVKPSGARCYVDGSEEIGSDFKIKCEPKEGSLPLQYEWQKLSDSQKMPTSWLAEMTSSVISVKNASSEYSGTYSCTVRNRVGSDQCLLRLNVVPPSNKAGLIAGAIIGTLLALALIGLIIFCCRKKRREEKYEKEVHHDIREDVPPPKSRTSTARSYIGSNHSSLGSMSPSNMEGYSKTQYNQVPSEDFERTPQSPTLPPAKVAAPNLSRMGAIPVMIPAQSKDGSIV

## biotinylated AdV5-GFP virus particles (complex)
  percent of the virus attached to cells: > 60%
